Source: article PMC4981545 (Cell reports, 2016)

Tests used:
Experiment in all cases: pull-down
[1] = biological target: T1, GST-tagged BPV-1 E2 (BE2), immobilized (bovine papillomavirus type 1 (BPV-1), UniProt P03122 1-410)
T1 sequence: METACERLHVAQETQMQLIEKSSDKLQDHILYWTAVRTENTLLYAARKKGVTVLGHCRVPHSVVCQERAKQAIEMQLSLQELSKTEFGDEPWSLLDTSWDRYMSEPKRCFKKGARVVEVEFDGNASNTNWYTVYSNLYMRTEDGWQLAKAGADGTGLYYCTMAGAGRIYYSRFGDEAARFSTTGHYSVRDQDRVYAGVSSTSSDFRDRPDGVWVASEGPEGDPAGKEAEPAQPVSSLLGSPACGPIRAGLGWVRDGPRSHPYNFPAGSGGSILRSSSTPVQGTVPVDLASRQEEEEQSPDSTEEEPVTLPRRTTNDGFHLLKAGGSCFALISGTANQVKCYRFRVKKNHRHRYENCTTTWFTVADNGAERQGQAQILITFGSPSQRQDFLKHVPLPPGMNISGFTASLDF

[2] = biological target: GST-tagged HPV-11 E2 (11E2), immobilized (HPV-11, UniProt P04015 1-367)
[3] = biological target: GST-tagged HPV-16 E2 (16E2), immobilized (HPV-16, UniProt P03120 1-365)
[4] = biological target: GST-tagged HPV-18 E2 (18E2), immobilized (HPV-18, UniProt P06790 1-365)
[5] = biological target: Sf9-PDID of BRD4 with S488 substituted to alanine (human, UniProt O60885 287-530, S488 to alanine)
[6] = biological target: Sf9-PDID of BRD4 with S492 substituted to alanine (human, UniProt O60885 287-530, S492 to alanine)
[7] = biological target: Sf9-PDID of BRD4 with S494 substituted to alanine (human, UniProt O60885 287-530, S494 to alanine)
[8] = biological target: Sf9-PDID of BRD4 with S498 substituted to alanine (human, UniProt O60885 287-530, S498 to alanine)
[9] = biological target: Sf9-PDID of BRD4 with S499 substituted to alanine (human, UniProt O60885 287-530, S499 to alanine)

Measured: binding result

GST-tagged HPV-16 E2 (16E2), immobilized, sequence (P03120 whole entry): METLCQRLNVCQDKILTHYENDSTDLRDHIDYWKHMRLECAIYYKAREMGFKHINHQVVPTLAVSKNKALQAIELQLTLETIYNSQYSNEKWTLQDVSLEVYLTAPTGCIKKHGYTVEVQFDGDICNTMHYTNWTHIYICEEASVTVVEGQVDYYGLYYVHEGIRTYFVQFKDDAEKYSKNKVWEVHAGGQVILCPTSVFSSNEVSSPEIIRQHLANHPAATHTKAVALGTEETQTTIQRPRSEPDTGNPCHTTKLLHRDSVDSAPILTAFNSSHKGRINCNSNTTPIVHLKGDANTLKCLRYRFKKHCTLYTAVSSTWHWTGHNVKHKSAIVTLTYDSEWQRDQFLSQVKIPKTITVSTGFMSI
GST-tagged HPV-11 E2 (11E2), immobilized, sequence (P04015 whole entry): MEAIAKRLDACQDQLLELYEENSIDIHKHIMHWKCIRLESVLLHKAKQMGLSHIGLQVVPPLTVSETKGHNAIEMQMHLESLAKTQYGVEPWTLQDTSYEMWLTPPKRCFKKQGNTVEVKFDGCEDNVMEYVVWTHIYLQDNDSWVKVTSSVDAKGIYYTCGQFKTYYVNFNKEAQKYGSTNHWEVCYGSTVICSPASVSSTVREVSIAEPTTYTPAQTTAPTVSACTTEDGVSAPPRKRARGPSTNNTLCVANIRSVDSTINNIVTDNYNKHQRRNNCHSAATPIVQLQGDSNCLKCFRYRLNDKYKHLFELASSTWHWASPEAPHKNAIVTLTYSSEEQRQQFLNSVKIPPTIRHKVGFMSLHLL
GST-tagged HPV-18 E2 (18E2), immobilized, sequence (P06790 whole entry): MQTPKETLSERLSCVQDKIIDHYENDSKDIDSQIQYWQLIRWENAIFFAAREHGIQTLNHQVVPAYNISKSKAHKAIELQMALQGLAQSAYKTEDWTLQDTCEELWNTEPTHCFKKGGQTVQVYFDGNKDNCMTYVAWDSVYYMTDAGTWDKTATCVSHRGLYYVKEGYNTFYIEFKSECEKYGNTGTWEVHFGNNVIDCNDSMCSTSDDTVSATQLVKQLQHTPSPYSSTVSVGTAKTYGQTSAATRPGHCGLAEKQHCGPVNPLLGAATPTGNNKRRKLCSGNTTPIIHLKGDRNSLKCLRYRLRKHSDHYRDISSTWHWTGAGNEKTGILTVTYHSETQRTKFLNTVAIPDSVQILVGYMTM

B1: Sf9-BID of BRD4 (fragment 6) (domain or fragment, human, UniProt O60885 524-579, looked up)
chain: QLAALSQPQQNKPKKKEKDKKEKKKEKHKRKEEVEENKKSKAKEPPPKKTKKNNSS
binds: [1] | [2] | [3] | [4]

B2: Bac-expressed FLAG-tagged BID of BRD4 (aa 524–579, fragment c) (domain or fragment, human, UniProt O60885 524-579, looked up)
chain: QLAALSQPQQNKPKKKEKDKKEKKKEKHKRKEEVEENKKSKAKEPPPKKTKKNNSS
binds: [1] | [2] | [3] | [4]

B3: GST-BID of BRD4 (domain or fragment, human, UniProt O60885 524-579, looked up)
chain: QLAALSQPQQNKPKKKEKDKKEKKKEKHKRKEEVEENKKSKAKEPPPKKTKKNNSS
binds: [5] | [6] | [7] | [8] | [9]
